# Measurements from US20200362034A1 (KINDRED BIOSCIENCES, published 2020).
# Columns and labels:
# [1] = target: human glucagon ligand peptide-1 receptor (GLP1R) (human, UniProt P43220 24-463); assay: cell-based or functional assay
# FeGLP1R-N-huFc_PolyHis = FeGLP1R-N-huFc_PolyHis (feline, biotinylated (sites not given) in the Octet assay); assay: biolayer interferometry (Octet); biotinylated FeGLP1R-N-huFc_PolyHis on streptavidin tips; 1:1 fit
# Protocol: Briefly, FeGLP1R-N-huFc_PolyHis was biotinylated, the free unreacted biotin was removed, and the biotinylated protein was captured to streptavidin sensor tips. […] Dissociation was monitored for 600 seconds. A buffer only blank curve was subtracted to correct for any drift. […] The buffer for dilutions and all binding steps was: 20 mM phosphate, 150 mM NaCl, pH 7.2.
# Chain of FeGLP1R-N-huFc_PolyHis (feline, biotinylated (sites not given) in the Octet assay) (chain, as listed by the source): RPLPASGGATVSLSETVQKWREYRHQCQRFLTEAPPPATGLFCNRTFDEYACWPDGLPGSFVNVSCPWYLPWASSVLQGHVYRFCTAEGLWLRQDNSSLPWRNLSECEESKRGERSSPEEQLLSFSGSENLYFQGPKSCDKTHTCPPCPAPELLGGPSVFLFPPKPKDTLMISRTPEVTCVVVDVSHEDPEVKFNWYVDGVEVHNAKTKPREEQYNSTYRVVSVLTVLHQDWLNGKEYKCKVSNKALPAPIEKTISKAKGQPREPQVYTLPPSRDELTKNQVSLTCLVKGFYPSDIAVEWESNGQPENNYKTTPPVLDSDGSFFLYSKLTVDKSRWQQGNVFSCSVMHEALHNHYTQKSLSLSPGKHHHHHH
Binder,"EC 50 (nM), cAMP Hunter bioassay on CHO-K1 cells overexpressing human GLP1R [1]",Kd (FeGLP1R-N-huFc_PolyHis)
GLP1-G8/GLP1-2G_III_VARfeIgG2 (Fc fusion) HGEGTFTSDVSSYLEGQAAKEFIAWLVKGGGGSGGGGSGGGGSGGGGSPKTASTIESKTGECPKCPVPEIPGAPSVFIFPPKPKDTLSISRTPEVTCLVVDLGPDDSNVQITWFVDNTEMHTAKTRPREEQFNSTYRVVSVLPILHQDWLKGKEFKCKVNSKSLPSAMERTISKAKGQPHEPQVYVLPPTQEELSENKVSVTCLIKGFHPPDIAVEWEITGQPEPENNYQTTPPQLDSDGTYFLYSRLSVDRSHWQRGNTYTCSVSHEALHSHHTQKSLTQSPGKGGGGSGGGGHAEGTFTSDVSSYLEGQAAKEFIAWLVKGGG,0.0175 nM,–
"GLP1-G8_I_VARfeIgG2 (Fc fusion, Formula I contiguous polypeptide made in CHO cells; The Fc chains pair through hinge disulfides; also called GLP1 MB variant; GLP1-B) HGEGTFTSDVSSYLEGQAAKEFIAWLVKGGGGSGGGGSGGGGSGGGGSPKTASTIESKTGECPKCPVPEIPGAPSVFIFPPKPKDTLSISRTPEVTCLVVDLGPDDSNVQITWFVDNTEMHTAKTRPREEQFNSTYRVVSVLPILHQDWLKGKEFKCKVNSKSLPSAMERTISKAKGQPHEPQVYVLPPTQEELSENKVSVTCLIKGFHPPDIAVEWEITGQPEPENNYQTTPPQLDSDGTYFLYSRLSVDRSHWQRGNTYTCSVSHEALHSHHTQKSLTQSPGK",0.0281 nM,8 to 16 nM
